Measured values taken from patent publication US20250145706A1 (SINABIOSOLUTION, published 2025).

Target: T1, soluble recombinant version of the IGLV3-21^R110-harboring B-cell receptor (monomeric human IgM, 170.5 kDa) (human)
T1 construct: Produced in 293-HEK cells by transient expression as monomeric human IgM; It was the analyte in solution in the BLI assay; also called soluble IGLV3-21^R110 B-cell receptor; soluble BCR-fragment
Assay: BLI (Octet), reference HC0-LC0
Description: (§1) Kinetic assays were performed by first immobilizing the anti IGLV3-21^R110 antibodies onto biosensors through an indirect capturing reagent, anti-human IgG Fc antibody. Anti IGLV3-21^R110 antibodies were loaded at a concentration of […] to generate an anti IGLV3-21^R110 antibody capture level of between 0.30 and 0.34 nm. […] The anti IGLV3-21^R110 antibody capture biosensors were then submerged in wells containing the different concentrations of the soluble BCR-fragment for 900 seconds (association stage) followed by a dissociation step of 1200 seconds in running buffer. Steps were performed at a constant shake speed of 1000 rpm. All reagents were used as described by the manufacturer. Sensorgrams were generated after double reference correction (buffer and blank sensors) to compensate for both the natural dissociation of the capture anti IGLV3-21^R110 antibody and also non-specific binding of the soluble BCR-fragment to the sensor surface. […] (KD) were calculated based on the ratio of association (kₐ) and dissociation rate (kd) constants, obtained by fitting sensorgrams with a first order 1:1 binding model using the Fortebio Data Analysis software (Satorius).
For the KD values of all humanized antibodies, see Table 3.

T1 sequence (heavy, as listed by the source limits assumed, chain 1 of 2): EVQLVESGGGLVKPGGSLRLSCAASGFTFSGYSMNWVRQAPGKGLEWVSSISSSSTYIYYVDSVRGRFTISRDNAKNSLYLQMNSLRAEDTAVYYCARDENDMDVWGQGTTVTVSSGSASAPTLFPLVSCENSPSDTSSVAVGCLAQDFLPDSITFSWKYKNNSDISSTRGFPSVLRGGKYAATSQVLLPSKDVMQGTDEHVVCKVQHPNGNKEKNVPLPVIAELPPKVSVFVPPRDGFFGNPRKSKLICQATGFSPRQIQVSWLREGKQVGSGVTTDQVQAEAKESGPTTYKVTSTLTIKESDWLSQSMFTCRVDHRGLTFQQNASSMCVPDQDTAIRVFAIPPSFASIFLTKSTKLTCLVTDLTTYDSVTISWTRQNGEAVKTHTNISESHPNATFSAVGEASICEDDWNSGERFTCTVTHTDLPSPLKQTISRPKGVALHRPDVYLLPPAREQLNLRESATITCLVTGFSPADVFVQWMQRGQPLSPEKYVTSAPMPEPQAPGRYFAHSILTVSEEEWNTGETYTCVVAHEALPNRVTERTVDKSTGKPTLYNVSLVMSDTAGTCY
T1 sequence (light, as listed by the source limits assumed, chain 2 of 2): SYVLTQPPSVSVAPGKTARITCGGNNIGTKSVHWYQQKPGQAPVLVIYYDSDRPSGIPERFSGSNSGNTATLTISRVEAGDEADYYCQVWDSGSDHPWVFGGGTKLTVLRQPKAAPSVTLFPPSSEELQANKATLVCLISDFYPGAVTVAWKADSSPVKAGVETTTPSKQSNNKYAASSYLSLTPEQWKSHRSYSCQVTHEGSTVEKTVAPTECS

Binder | fold of the dissociation constant against chimeric antibody HC0-LC0 [fold]
HC7-LC6 (antibody, human IgG1, kappa, V domains shown, Humanized IgG1 / kappa) VH: QVQLQESGPGLVKPSETLSLTCTVSGFSLTSYGIHWIRQSPGRGLEWIGVIWRGGGTDSNAAFMSRITISRDTSKTQVSLKLGSVTAADTAIYYCARSRYDEEESMNYWGQGTSVTVSS VL: EIVLTQSPSSLSASVGDSVTITCRASGNIHSYLAWYQQKPGKAPKLLIYNAKTLADGVPSRFSGSGSGTQYTLTISSLQPEDFATYYCQHFWNTPPTFGAGTKLELKR | ≤ 2

Target: T1, soluble recombinant version of the …
Assay: BLI (Octet), antibody captured on anti-human IgG Fc sensor, soluble BCR as analyte, 1:1 model
Description: as §1

Binder | Kd [nM]
HC0-LC0 (antibody, human IgG1, kappa, V domains shown, Chimeric: mAb01-01 VH/VL on human IgG1 / human Ig kappa constant domains; also called chimeric antibody HC0-LC0; HC01 LC01) VH: QVQLQQSGPGLVQPSQSLSITCTVSGFSLTSYGIHWVRQSPGKGLEWLGVIWRGGGTDSNAAFMSRLSITKDNSKSQVFFKMNSLQADDTAIYYCARSRYDEEESMNYWGQGTSVTVSS VL: QIVLTQSPASLSASVGETVTITCRASGNIHSYLAWYQQKQGKSPQLLVYNAKTLADGVPSRFSGSGSGTQYSLKINSLQPEDFGSYYCQHFWNTPPTFGAGTKLELKR | 0.121
HC7-LC6 (antibody, human IgG1, kappa, V domains shown, Humanized IgG1 / kappa) VH: QVQLQESGPGLVKPSETLSLTCTVSGFSLTSYGIHWIRQSPGRGLEWIGVIWRGGGTDSNAAFMSRITISRDTSKTQVSLKLGSVTAADTAIYYCARSRYDEEESMNYWGQGTSVTVSS VL: EIVLTQSPSSLSASVGDSVTITCRASGNIHSYLAWYQQKPGKAPKLLIYNAKTLADGVPSRFSGSGSGTQYTLTISSLQPEDFATYYCQHFWNTPPTFGAGTKLELKR | 0.175
HC7-LC8 (antibody, human IgG1, kappa, V domains shown, Humanized IgG1 / kappa) VH: QVQLQESGPGLVKPSETLSLTCTVSGFSLTSYGIHWIRQSPGRGLEWIGVIWRGGGTDSNAAFMSRITISRDTSKTQVSLKLGSVTAADTAIYYCARSRYDEEESMNYWGQGTSVTVSS VL: EIVLTQSPATLSLSPGERATLSCRASGNIHSYLAWYQQKPGQAPRLLIYNAKTLADGIPARFSGSGSGTDYTLTISSLEPEDFASYYCQHFWNTPPTFGAGTKLELKR | 0.249
HC7-LC7 (antibody, human IgG1, kappa, V domains shown, Humanized IgG1 / kappa) VH: QVQLQESGPGLVKPSETLSLTCTVSGFSLTSYGIHWIRQSPGRGLEWIGVIWRGGGTDSNAAFMSRITISRDTSKTQVSLKLGSVTAADTAIYYCARSRYDEEESMNYWGQGTSVTVSS VL: QIQLTQSPSFLSASVGDSVTITCRASGNIHSYLAWYQQKPGKAPQLLIYNAKTLADGVPSRFSGSGSGTEYTLTISSLQPEDFATYYCQHFWNTPPTFGAGTKLELKR | 0.269
HC7-LC9 (antibody, human IgG1, kappa, V domains shown, Humanized IgG1 / kappa) VH: QVQLQESGPGLVKPSETLSLTCTVSGFSLTSYGIHWIRQSPGRGLEWIGVIWRGGGTDSNAAFMSRITISRDTSKTQVSLKLGSVTAADTAIYYCARSRYDEEESMNYWGQGTSVTVSS VL: EIVLTQSPGTLSLSPGERATLSCRASGNIHSYLAWYQQKPGQAPRLLIYNAKTLADGIPDRFSGSGSGTDYTLTISRLEPEDFAVYYCQHFWNTPPTFGAGTKLELKR | 0.313
